In patent publication US20170306031A1 (NGM BIOPHARMACEUTICALS, published 2017):
Where two headings read alike, the source gives them in different places.

T1: human GFRAL (analyte in Biacore assays) (human, UniProt Q6UXV0 19-351, limits assumed)
T1 construct: injected in solution over captured antibody; also called hGFRAL
T1 sequence: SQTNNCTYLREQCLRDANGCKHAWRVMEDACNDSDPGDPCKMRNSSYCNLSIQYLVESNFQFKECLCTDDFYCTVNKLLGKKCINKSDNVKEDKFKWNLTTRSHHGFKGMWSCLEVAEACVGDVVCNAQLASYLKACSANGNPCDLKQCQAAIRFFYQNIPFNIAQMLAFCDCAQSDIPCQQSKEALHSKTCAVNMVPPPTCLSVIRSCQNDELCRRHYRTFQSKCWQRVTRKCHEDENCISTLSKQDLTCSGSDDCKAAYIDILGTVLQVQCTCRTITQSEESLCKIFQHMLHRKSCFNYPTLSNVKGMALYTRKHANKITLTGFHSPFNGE

T2: human GFRAL expressed on cells (human, UniProt Q6UXV0 20-394)
T2 sequence: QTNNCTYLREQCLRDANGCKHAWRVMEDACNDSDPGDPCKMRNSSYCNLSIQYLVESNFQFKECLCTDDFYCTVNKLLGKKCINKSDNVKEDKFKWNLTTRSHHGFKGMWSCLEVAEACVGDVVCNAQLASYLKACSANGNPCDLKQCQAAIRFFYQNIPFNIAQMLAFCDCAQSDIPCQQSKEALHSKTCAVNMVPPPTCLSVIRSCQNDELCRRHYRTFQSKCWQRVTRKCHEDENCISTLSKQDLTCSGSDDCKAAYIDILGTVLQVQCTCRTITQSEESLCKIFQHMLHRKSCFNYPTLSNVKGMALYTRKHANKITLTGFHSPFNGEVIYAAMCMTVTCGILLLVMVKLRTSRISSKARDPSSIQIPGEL

T3: mouse GFRAL expressed on cells (mouse, UniProt Q6SJE0 20-393)
T3 sequence: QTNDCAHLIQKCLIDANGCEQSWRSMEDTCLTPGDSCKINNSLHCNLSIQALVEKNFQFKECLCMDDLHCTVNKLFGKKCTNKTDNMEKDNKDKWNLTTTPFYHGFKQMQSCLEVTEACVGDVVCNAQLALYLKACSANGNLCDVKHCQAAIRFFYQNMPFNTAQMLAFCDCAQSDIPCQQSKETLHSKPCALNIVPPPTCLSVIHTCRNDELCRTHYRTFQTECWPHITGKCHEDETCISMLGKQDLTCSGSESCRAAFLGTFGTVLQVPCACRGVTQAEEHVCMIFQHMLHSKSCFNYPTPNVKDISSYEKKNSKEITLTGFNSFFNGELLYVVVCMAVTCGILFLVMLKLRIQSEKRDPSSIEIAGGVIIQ

T4: mouse GFRAL (analyte in Biacore assays) (mouse, UniProt Q6SJE0 20-349, limits assumed)
T4 construct: injected in solution over captured antibody
T4 sequence: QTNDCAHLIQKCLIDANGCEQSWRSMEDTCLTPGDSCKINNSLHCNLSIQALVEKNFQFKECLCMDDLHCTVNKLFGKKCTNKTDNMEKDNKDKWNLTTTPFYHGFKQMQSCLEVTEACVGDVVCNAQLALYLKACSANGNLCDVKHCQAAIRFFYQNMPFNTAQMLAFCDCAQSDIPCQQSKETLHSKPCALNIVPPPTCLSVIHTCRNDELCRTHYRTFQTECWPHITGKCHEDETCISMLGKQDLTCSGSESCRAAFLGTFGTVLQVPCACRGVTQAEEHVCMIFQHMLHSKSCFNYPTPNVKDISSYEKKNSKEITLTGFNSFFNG


What was measured:
[1] = biological target: T1, human GFRAL (analyte in Biacore assays); assay: Biacore SPR, antibody captured, human GFRAL injected
Description: Exemplary humanized anti-GFRAL antibodies identified in Example 6 were assayed for their binding affinity to human GFRAL. Binding affinity measurements were made in Biacore based assays. For example, equilibrium dissociation constant (KD) measurements were carried out with purified antibodies to evaluate their binding to human GFRAL. Using methods described in Example II, anti-mouse Fc antibody (Sigma-Aldrich, St. Louis, Mo.) was immobilized on all four flow cells of a CM5 chip using amine coupling reagents (GE Healthcare LifeSciences, Piscataway, N.J.). Purified humanized anti-GFRAL antibodies were captured (˜100 RUs) on flow cells 2, 3 and 4 using flow cell 1 as a reference. This was followed by injection of human GFRAL in PBS-P buffer) at a flow rate of 70 μL/min and the binding kinetics were evaluated at 25° C.

[2] = biological target: T2, human GFRAL expressed on cells; assay: cell-based or functional assay
[3] = biological target: T3, mouse GFRAL expressed on cells; assay: cell-based or functional assay
[4] = biological target: T2, human GFRAL expressed on cells; assay: cell-based or functional assay; remark: listed apart in the source
[5] = biological target: T4, mouse GFRAL (analyte in Biacore assays); assay: Biacore SPR, antibody captured, GFRAL injected
Description: (§1) In addition, the binding affinity of antibodies to human and mouse GFRAL were measured. For example, antibodies were rank ordered based on their binding affinity to human GFRAL and mouse GFRAL by low resolution KD measurement by Biacore. Briefly, an anti-mouse Fc antibody (Sigma-Aldrich, St. Louis, Mo.) was immobilized on all four flow cells of a CM5 chip using amine coupling reagents (GE Healthcare LifeSciences, Piscataway, N.J.). Purified antibodies were captured (˜100 RUs) on flow cells 2, 3 and 4 using flow cell 1 as a reference. This was followed by injection of human or mouse GFRAL (25 nM in PBS-P buffer) at a flow rate of 70 μL/m in and monitoring the binding kinetics at 25° C.
(§2) Binding affinity measurements were also made in additional Biacore based assays. For example, equilibrium dissociation constant (KD) measurements were carried out with purified antibodies to evaluate their binding to human GFRAL or mouse GFRAL. As mentioned above, anti-mouse Fc antibody (Sigma-Aldrich, St. Louis, Mo.) was immobilized on all four flow cells of a CM5 chip using amine coupling reagents (GE Healthcare LifeSciences, Piscataway, N.J.). Purified antibodies were captured (˜100 RUs) on flow cells 2, 3 and 4 using flow cell 1 as a reference. This was followed by injection of human or mouse GFRAL in PBS-P buffer) at a flow rate of 70 μL/min and the binding kinetics were evaluated at 25° C.

[6] = biological target: T1, human GFRAL (analyte in Biacore assays); assay: Biacore SPR, antibody captured, GFRAL injected
Description: as §1, §2

[7] = biological target: T2, human GFRAL expressed on cells; assay: cell-based or functional assay; remark: listed apart in the source

Kd [1] [nM]	IC50, ELK1-luciferase reporter (hGFRAL/hRET) [2] [nM]	Binder	further results
0.074	3.86	humanized anti-GFRAL antibody HC-375d/LC-375a (antibody, V domains shown, humanized 5F12) VH: QVQLVQSGAEVKKPGSSVKVSCKASGYTFTDYYINWVRQAPGQGLEWIGRIYPGNGNTYHNEKFKGRATLTADKSTSTAYMELSSLRSEDTAVYYCAREGLYYDYDRYFDYWGQGTLVTVSS VL: DIVMTQSPDSLAVSLGERATINCRASESVDTYGNSFMHWYQQKPGQPPKLLIYLASNLESGVPDRFSGSGSGTDFTLTISSLQAEDVAVYYCHQNNEDPPAFGGGTKVEIK	
0.075	3.28	humanized anti-GFRAL antibody HC-375d/LC-375c (antibody, IgG1, V domains shown, humanized 5F12) VH: QVQLVQSGAEVKKPGSSVKVSCKASGYTFTDYYINWVRQAPGQGLEWIGRIYPGNGNTYHNEKFKGRATLTADKSTSTAYMELSSLRSEDTAVYYCAREGLYYDYDRYFDYWGQGTLVTVSS VL: DIQMTQSPSSLSASVGDRVTITCRASESVDTYGNSFMHWYQQKPGKAPKLLIYLASNLESGVPSRFSGSGSGTDFTLTISSLQPEDFATYYCHQNNEDPPAFGGGTKVEIK	
0.046	3.11	humanized anti-GFRAL antibody HC-375d/LC-375j (antibody, IgG1, V domains shown, humanized 5F12) VH: QVQLVQSGAEVKKPGSSVKVSCKASGYTFTDYYINWVRQAPGQGLEWIGRIYPGNGNTYHNEKFKGRATLTADKSTSTAYMELSSLRSEDTAVYYCAREGLYYDYDRYFDYWGQGTLVTVSS VL: DIVLTQSPLSLPVTLGQPASISCRASESVDTYGNSFMHWYQQRPGQSPRLLIYLASNLESGVPDRFSGSGSRTDFTLKISRVEAEDVGVYYCHQNNEDPPAFGGGTKVEIK	
0.077	2.79	humanized anti-GFRAL antibody HC-375d/LC-375g (antibody, IgG1, V domains shown, humanized 5F12) VH: QVQLVQSGAEVKKPGSSVKVSCKASGYTFTDYYINWVRQAPGQGLEWIGRIYPGNGNTYHNEKFKGRATLTADKSTSTAYMELSSLRSEDTAVYYCAREGLYYDYDRYFDYWGQGTLVTVSS VL: DIVLTQSPDSLAVSLGERATINCRASESVDTYGNSFMHWYQQKPGQPPKLLIYLASNLESGVPDRFSGSGSRTDFTLTISSLQAEDVAVYYCHQNNEDPPAFGGGTKVEIK	
0.048	4.01	humanized anti-GFRAL antibody HC-375e/LC-375j (antibody, IgG1, V domains shown, humanized 5F12) VH: QVQLVQSGAEVKKPGSSVKVSCKASGYTFTDYYINWVRQAPGQGLEWMGRIYPGNGNTYHNEKFKGRATLTADESTSTAYMELSSLRSEDTAVYYCAREGLYYDYDRYFDYWGQGTLVTVSS VL: DIVLTQSPLSLPVTLGQPASISCRASESVDTYGNSFMHWYQQRPGQSPRLLIYLASNLESGVPDRFSGSGSRTDFTLKISRVEAEDVGVYYCHQNNEDPPAFGGGTKVEIK	
0.06	7.29	humanized anti-GFRAL antibody HC-375h/LC-375j (antibody, IgG1, V domains shown, humanized 5F12) VH: QVQLVQSGAEVKKPGASVKVSCKASGYTFTDYYINWVRQAPGQRLEWIARIYPGNGNTYHNEKFKGRATLTRDKSASTAYMELSSLRSEDTAVYYCAREGLYYDYDRYFDYWGQGTLVTVSS VL: DIVLTQSPLSLPVTLGQPASISCRASESVDTYGNSFMHWYQQRPGQSPRLLIYLASNLESGVPDRFSGSGSRTDFTLKISRVEAEDVGVYYCHQNNEDPPAFGGGTKVEIK	
0.062	2.75	humanized anti-GFRAL antibody HC-375d/LC-375i (antibody, IgG1, V domains shown, humanized 5F12) VH: QVQLVQSGAEVKKPGSSVKVSCKASGYTFTDYYINWVRQAPGQGLEWIGRIYPGNGNTYHNEKFKGRATLTADKSTSTAYMELSSLRSEDTAVYYCAREGLYYDYDRYFDYWGQGTLVTVSS VL: DVVLTQSPLSLPVTLGQPASISCRASESVDTYGNSFMHWFQQRPGQSPRLLIYLASNLESGVPDRFSGSGSGTDFTLKISRVEAEDVGVYYCHQNNEDPPAFGGGTKVEIK	
0.081	2.27	humanized anti-GFRAL antibody HC-375e/LC-375g (antibody, IgG1, V domains shown, humanized 5F12) VH: QVQLVQSGAEVKKPGSSVKVSCKASGYTFTDYYINWVRQAPGQGLEWMGRIYPGNGNTYHNEKFKGRATLTADESTSTAYMELSSLRSEDTAVYYCAREGLYYDYDRYFDYWGQGTLVTVSS VL: DIVLTQSPDSLAVSLGERATINCRASESVDTYGNSFMHWYQQKPGQPPKLLIYLASNLESGVPDRFSGSGSRTDFTLTISSLQAEDVAVYYCHQNNEDPPAFGGGTKVEIK	
0.091	2.81	humanized anti-GFRAL antibody HC-375e/LC-375a (antibody, V domains shown, humanized 5F12) VH: QVQLVQSGAEVKKPGSSVKVSCKASGYTFTDYYINWVRQAPGQGLEWMGRIYPGNGNTYHNEKFKGRATLTADESTSTAYMELSSLRSEDTAVYYCAREGLYYDYDRYFDYWGQGTLVTVSS VL: DIVMTQSPDSLAVSLGERATINCRASESVDTYGNSFMHWYQQKPGQPPKLLIYLASNLESGVPDRFSGSGSGTDFTLTISSLQAEDVAVYYCHQNNEDPPAFGGGTKVEIK	
0.092	2.2	humanized anti-GFRAL antibody HC-375e/LC-375c (antibody, IgG1, V domains shown, humanized 5F12) VH: QVQLVQSGAEVKKPGSSVKVSCKASGYTFTDYYINWVRQAPGQGLEWMGRIYPGNGNTYHNEKFKGRATLTADESTSTAYMELSSLRSEDTAVYYCAREGLYYDYDRYFDYWGQGTLVTVSS VL: DIQMTQSPSSLSASVGDRVTITCRASESVDTYGNSFMHWYQQKPGKAPKLLIYLASNLESGVPSRFSGSGSGTDFTLTISSLQPEDFATYYCHQNNEDPPAFGGGTKVEIK	
		antibody designated 17J16 (antibody, V domains shown, mouse hybridoma monoclonal) VH: QVQLQQSGAELAKPGASVKMSCKTSGYTFTDYWIHWVKQRPGQGLEWIGYINPNSNYAEYNQKFKVKATLTADKSSSTAYLQLSRLTSEDSAVYYCARFDWNWYFHVWGAGSTVTVSS VL: DVALTQIPLTLSVTVGQPASISCKSSQSLSDSDGKTYLNWLLQKPGQSPKRLIYLVSRLGSGVPDRFTGSGSGADFTLKISRVEAEDLGVYYCWQGTHFPQTFGGGTKLEIK	IC50, ELK1-luciferase reporter (mGFRAL/mRET) [3]: 0.407 nM; IC50, ELK1-luciferase reporter (hGFRAL/hRET) [4]: 0.666 nM; Kd [5]: < 0.1 nM; koff [5]: 1e-05 s⁻¹; Kd [6]: < 0.1 nM; koff [6]: ~1e-05 s⁻¹; IC50, ERK phosphorylation in U2OS hGFRAL/hRET cells [7]: 0.1 nM
